Test results reported in patent publication EP3766512A1 (Universität Zürich, dated 2021).

Key:
Assay in all cases: Protein G affinity chromatography bead
human IL-12Fc NAH = molecular target: T1, human IL-12Fc NAH (human, UniProt P29460 23-328; P29459 23-219)
T1 construct: not shown: linker between p40 and p35 of single chain IL-12 not described; junction or linker between IL-12 and Fc not described

human IL-12Fc NAE = molecular target: T2, human IL-12Fc NAE (human, UniProt P29460 23-328; P29459 23-219)
T2 construct: not shown: linker between p40 and p35 of single chain IL-12 not described; junction or linker between IL-12 and Fc not described

human IL-12Fc NAA = molecular target: T3, human IL-12Fc NAA (human, UniProt P29460 23-328; P29459 23-219)
T3 construct: not shown: linker between p40 and p35 of single chain IL-12 not described; junction or linker between IL-12 and Fc not described

Measured: binding result

T3 sequence (P29460 other isoform, or with tags, fused parts or gaps): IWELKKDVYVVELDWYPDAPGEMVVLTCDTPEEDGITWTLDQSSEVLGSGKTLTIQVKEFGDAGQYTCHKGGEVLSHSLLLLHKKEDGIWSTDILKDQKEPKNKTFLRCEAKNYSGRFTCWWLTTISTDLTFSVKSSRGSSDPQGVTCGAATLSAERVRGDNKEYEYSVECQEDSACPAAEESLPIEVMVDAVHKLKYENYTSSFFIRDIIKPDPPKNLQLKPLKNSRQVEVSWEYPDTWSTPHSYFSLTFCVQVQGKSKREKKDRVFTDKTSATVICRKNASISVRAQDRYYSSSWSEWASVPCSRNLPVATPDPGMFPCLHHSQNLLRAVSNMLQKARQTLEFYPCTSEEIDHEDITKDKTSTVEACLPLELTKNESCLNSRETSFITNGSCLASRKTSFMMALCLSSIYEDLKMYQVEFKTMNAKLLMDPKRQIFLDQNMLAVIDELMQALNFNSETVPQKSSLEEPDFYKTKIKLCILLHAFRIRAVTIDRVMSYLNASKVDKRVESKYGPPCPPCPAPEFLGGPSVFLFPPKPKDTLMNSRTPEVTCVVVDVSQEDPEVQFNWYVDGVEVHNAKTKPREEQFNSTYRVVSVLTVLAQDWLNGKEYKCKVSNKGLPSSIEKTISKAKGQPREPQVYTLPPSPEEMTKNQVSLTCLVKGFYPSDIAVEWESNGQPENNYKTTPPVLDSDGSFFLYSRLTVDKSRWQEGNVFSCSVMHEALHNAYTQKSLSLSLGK
T1 sequence (P29460 other isoform, or with tags, fused parts or gaps): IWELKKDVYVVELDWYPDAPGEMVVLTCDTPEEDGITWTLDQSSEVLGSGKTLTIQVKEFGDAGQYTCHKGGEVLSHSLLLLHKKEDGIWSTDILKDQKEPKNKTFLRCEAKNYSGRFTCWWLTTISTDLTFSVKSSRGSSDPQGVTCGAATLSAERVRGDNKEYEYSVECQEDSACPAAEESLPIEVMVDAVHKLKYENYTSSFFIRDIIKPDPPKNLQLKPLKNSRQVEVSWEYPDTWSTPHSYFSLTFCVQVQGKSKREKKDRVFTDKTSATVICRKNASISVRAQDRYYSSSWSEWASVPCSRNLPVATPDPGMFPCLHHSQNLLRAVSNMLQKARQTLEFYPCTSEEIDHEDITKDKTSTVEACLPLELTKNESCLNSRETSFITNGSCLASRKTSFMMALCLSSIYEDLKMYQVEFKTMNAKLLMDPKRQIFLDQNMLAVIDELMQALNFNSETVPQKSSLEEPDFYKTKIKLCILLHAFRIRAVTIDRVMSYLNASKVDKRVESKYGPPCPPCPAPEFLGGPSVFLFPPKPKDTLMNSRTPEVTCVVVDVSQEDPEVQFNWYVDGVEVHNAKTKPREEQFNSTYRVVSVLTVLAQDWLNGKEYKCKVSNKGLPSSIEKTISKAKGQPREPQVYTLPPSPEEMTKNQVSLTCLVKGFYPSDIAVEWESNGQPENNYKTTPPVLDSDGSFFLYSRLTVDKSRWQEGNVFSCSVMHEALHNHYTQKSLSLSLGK
T2 sequence (P29460 other isoform, or with tags, fused parts or gaps): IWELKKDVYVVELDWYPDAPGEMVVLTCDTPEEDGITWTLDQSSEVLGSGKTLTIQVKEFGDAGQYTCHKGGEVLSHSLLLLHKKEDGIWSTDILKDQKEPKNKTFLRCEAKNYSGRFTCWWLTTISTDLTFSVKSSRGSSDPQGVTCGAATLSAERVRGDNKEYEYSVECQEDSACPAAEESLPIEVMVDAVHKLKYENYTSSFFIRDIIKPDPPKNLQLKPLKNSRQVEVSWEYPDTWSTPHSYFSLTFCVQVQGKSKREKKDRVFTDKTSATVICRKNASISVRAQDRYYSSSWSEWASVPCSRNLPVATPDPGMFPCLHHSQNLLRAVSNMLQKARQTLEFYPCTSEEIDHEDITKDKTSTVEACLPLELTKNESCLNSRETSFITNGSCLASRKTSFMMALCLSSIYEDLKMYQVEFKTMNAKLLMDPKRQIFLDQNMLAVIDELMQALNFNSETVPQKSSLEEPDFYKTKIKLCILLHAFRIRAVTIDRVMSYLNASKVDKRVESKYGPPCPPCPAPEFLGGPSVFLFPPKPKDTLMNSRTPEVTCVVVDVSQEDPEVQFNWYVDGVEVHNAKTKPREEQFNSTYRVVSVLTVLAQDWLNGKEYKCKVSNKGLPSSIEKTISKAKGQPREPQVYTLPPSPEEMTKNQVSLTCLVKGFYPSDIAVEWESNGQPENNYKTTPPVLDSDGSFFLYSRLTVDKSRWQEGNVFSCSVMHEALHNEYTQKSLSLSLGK

B1: Protein G (chromatography bead) (other, UniProt P19909 303-497, looked up)
chain: TYKLILNGKTLKGETTTEAVDAATAEKVFKQYANDNGVDGEWTYDDATKTFTVTEKPEVIDASELTPAVTTYKLVINGKTLKGETTTEAVDAATAEKVFKQYANDNGVDGEWTYDDATKTFTVTEKPEVIDASELTPAVTTYKLVINGKTLKGETTTKAVDAETAEKAFKQYANDNGVDGVWTYDDATKTFTVTE
no binding: all assays above
